From paper PMC4358236 (The Journal of Biological Chemistry, 2015) come the findings set out here.

In general, stoichiometry N refers to a count of units in the complex or per binding partner.

The data set deals with the molecule itself. Description: SEC-MALS. (In general: Size exclusion chromatography separates by hydrodynamic size, large species first.)

B1: VACV protein N1 with C-terminal His6 tag (natural protein)
chain: MRTLLIRYILWRNDNDQTYYNDNFKKLMLLDELVDDGDVCTLIKNMRMTLSDGPLLDRLNQPVNNIEDAKRMIAISAKVARDIGERSEIRWEESFTILFRMIETYFDDLMIDLYGEK
For the protein B1, the “stoichiometry N” value was determined as 2.
